Experimental findings from US20240117038A1 are described below.

Test [1] addresses human CX3CR1 (human) (UniProt P49238). Put plainly: cell-based or functional assay.
In test [2] the target is mouse CX3CR1 (mouse) (UniProt Q9Z0D9). The test is described as follows: cell-based or functional assay.
Chain of mouse CX3CR1 (mouse) (Q9Z0D9 whole entry): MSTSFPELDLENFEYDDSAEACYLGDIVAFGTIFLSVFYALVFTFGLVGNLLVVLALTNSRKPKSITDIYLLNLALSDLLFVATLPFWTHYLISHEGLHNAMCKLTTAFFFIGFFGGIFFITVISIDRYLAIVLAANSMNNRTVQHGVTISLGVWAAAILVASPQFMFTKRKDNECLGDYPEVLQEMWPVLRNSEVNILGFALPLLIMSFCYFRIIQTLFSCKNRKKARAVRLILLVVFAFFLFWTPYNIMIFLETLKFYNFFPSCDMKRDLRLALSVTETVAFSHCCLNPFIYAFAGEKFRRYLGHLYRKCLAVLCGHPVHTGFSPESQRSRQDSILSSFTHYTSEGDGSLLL

Chain of human CX3CR1 (human) (P49238 whole entry): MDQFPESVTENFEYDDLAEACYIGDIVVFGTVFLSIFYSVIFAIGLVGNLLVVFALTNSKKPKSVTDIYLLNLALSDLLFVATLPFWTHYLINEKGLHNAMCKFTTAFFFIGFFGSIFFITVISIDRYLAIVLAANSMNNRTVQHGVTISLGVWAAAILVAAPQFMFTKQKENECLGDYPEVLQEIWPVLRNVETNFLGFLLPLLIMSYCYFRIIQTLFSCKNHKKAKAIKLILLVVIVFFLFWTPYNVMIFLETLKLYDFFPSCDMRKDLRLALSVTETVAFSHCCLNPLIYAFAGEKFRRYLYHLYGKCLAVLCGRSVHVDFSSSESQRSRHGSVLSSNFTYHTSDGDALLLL

The substance “mouse CX3CL1 (from UniProt O35188 25-337) (ligand)” had an EC50, ERK phosphorylation in CHO K1 huCX3CR1 cells in test [1] of 73 nM. The same substance gave an EC50, ERK phosphorylation in CHO K1 mCX3CR1 cells in test [2] of 23 nM.
